According to US20060002901A1, “Composition containing eosinophil cationic protein” (priority 2002, published 2006):

B1: RNaseA: RNaseA, added as comparison protein alongside ECP (protein, UniProt P61823 27-150, looked up)
Ribonuclease pancreatic: KETAAAKFERQHMDSSTSAASSSNYCNQMMKSRNLTKDRCKPVNTFVHESLADVQAVCSQKNVACKNGQTNCYQSYSTMSITDCRETGSSKYPNCAYKTTQANKHIIVACEGNPYVPVHFDASV
B2: eosinophil cationic protein (protein, UniProt P12724 28-160, looked up)
Eosinophil cationic protein: RPPQFTRAQWFAIQHISLNPPRCTIAMRAINNYRWRCKNQNTFLRTTFANVVNVCGNQSIRCPHNRTLNNCHRSRFRVPLLHCDLINPGAQNISNCTYADRPGRRFYVVACDNRDPRDSPRYPVVPVHLDTTI

Key:
BALB/c 3T3 cells [1] = assay: Proliferation of BALB/c 3T3 cells in low-serum medium, phase-contrast microscopy; type: cell-based, mouse; conditions: 0.5% FBS, 1 μM ECP, 60 pM bFGF, 48 hours, FIG. 4
Method: In DMEM culture medium containing 10% FBS in a 24-well culture plate, BALB/c 3T3 cells were inoculated at a concentration of 2×10^4 cells/well, and cultured. […] After 24 hours, 1 μM ECP or RNaseA, and 60 pM bFGF were added to the culture solution in combination, respectively, then the culture was continued for an additional 48 hours.

BALB/c 3T3 A31-K cells = assay: Proliferation of BALB/c 3T3 cells, number of living cells after 48 hours; type: cell-based, mouse; conditions: 10% FBS, FIG. 2
Method: In DMEM culture medium containing 10% FBS in a 96-well culture plate, BALB/c 3T3 A31-K cells were inoculated at a concentration of 1000 cells/well, and after 24 hours, ECP or RNaseA was added to the culture solution to a final concentration of 1 μM, respectively. After the culture was continued for 48 hours, the number of living cells was counted.

[2] = system: myocardial cell derived from newborn rat; assay: Immunofluorescence staining of dedifferentiated myocardial cells; type: cell-based; conditions: ECP 100 ng/ml; 24 hours; FIG. 8
Method: The cultured myocardial cells were cultured in SFM (2 μM BrDU, 100 units/ml penicillin, 100 μg/ml streptomycin) for 48 hours, whereby the cells were dedifferentiated. Then, the culture medium was changed, and ECP was added to a final concentration of 100 ng/ml. After an additional 24 hours, the cells were washed three times with 1× PBS for 10 minutes each, then dipped in 4% paraformaldehyde at room temperature for 30 minutes, whereby the cells were fixed. Then, the cells were dipped in PBS containing 0.25% Triton-X100 at room temperature for 15 minutes, and reacted in a blocking buffer containing BSA, to which anti-ENH1 antibody had been added at a ratio of 1:40, or anti-α-actinin antibody had been added at a ratio of 1:100, at 4° C. overnight. Then, a 20-minute washing with PBS containing 0.03% Triton-X100 was performed and the washing was repeated three times. To the blocking buffer, Cy3-labeled anti-mouse antibody and Cy2-labeled anti-rabbit IgG antibody were added (1:250 dilution in blocking buffer), respectively, and reaction was performed at 4° C. for 4 hours. After the reaction, a 20-minute washing with PBS containing 0.03% Triton-X100 was performed again and the washing was repeated three times. Then, water content was removed and 90% glycerol was added.

MC3T3-E1 cells = assay: Alkali phosphatase (ALP) activity in osteoblast-like cells; type: cell-based, rat; conditions: ECP at 1 ng/ml vs BMP-4 100 ng/ml, 72 hours, FIG. 12
Method: MC3T3-E1 cells were inoculated into α-MEM medium in a 24-well culture plate, and ECP (at a final concentration of 1 ng, 10 ng, 100 ng or 1 μg per ml), BMP-4 (100 ng/ml) or bFGF (100 ng/ml) was added. After 72 hours, the cells were washed with 10 mM Tris-HCl (pH 7.2) solution twice, and lysed in 10 mM Tris-HCl (pH 7.2) solution containing 0.1% Triton-X100. Then, the cell lysis solution was subjected to sonication treatment for 15 seconds to homoginize the cells. Then, 100 μl of the homogenized cell solution and 0.1 M aminomethyl propanol were mixed with 100 μl of a substrate solution (4 mg/ml p-nitorophenyl phosphate and 2 mM MgCl2) adjusted at pH 10.5, and they were reacted with each other at 37° C. for 30 minutes. The reaction was terminated with 0.5 M NaOH, and the absorbance at 410 nm was measured. The obtained value was divided by the total amount of proteins in the homogenized cell solution, whereby the specific activity was calculated.

[3] = system: myocardial cell derived from newborn rat; assay: Number of heartbeats of myocardial cells; type: cell-based; conditions: ECP 10 ng, 100 ng or 1 μg per ml; 24 hours; FIG. 9
Method: Myocardial cells isolated from a newborn rat were dedifferentiated in the same manner as in Example 7 and ECP was added to the culture solution (10 ng, 100 ng or 1 μg per ml). Twenty-four hours after the addition, the number of heartbeats was counted.
Further, the effects of a ROCK inhibitor (Y27632) on the effects of ECP on increase in the number of heartbeats of myocardial cell were studied. The adding amounts of Y27632 were set at 0, 5, 10 and 15 μM, and the ECP concentration was set at 100 ng/ml.

BALB/c 3T3 cells [4] = assay: Cytoskeletal molecule (stress fiber) formation in low-serum medium, confocal immunostaining; type: cell-based, mouse; conditions: 0.5% FBS, 1 μM ECP, 6 hours, FIG. 5
Method: A round cover glass with a diameter of 15 mm which had been sterilized in advance was placed in a 24-well culture plate, 1× phosphate buffer (PBS) containing 0.1% gelatin was added to each well so that the cover glass was sufficiently dipped in the solution. Then, the plate was left at room temperature for 30 minutes, whereby the cover glass was coated with gelatin. Then, each well was filled with DMEM culture medium containing 10% FBS, and BALB/c 3T3 cells were inoculated at a concentration of 2×10^4 cells/well and cultured. […] After an additional 24 hours, 1 μM ECP or RNaseA was added to the culture solution, respectively. After 6 hours, the cover glass on which BALB/c 3T3 cells were grown, was taken out from the well, washed 2 to 3 times with 1× PBS, then dipped in 4% formaldehyde (Wako Pure Chemical Industries, Ltd.) at room temperature for 10 minutes, whereby the cells were fixed. Then, the cover glass was washed 2 to 3 times with 1× PBS, dipped in 1× PBS containing 0.1% Trton-X100 for 10 minutes, whereby the cell membranes were lysed. Then, the cover glass was washed 2 to 3 times with 1× PBS, dipped in 0.5% BSA/PBS and left at room temperature for 30 minutes, whereby a nonspecific adsorption region was blocked with BSA in this operation. […]

BALB/c 3T3 cells [5] = assay: Time-course proliferation of BALB/c 3T3 cells, living cells counted every 24 hours; type: cell-based, mouse; conditions: 10% FBS, 4 days, medium changed on day 2, FIG. 3
Method: In DMEM culture medium containing 10% FBS in a 96-well culture plate, BALB/c 3T3 cells were inoculated at a concentration of 1000 cells/well. After the cells were cultured for 24 hours, 1 μM ECP or 1 μM RNaseA was added to the culture solution to a final concentration of […], respectively. The culture was continued for 4 days, and the number of living cells was counted for every 24 hours. Incidentally, the culture medium was changed on day 2 of the culture.

PC12 cells = assay: Survival of nerve like PC12 cells in serum-free medium, Cell Titer-Glo; type: cell-based; conditions: serum-free DMEM, 72 hours, ECP 10 and 1000 ng/ml, FIG. 11
Method: PC12 cells were cultured overnight in a 96-well culture plate at 1×10^4 cells/well/100 μl. As the culture medium, DMEM culture medium containing 10% FBS, penicillin, and streptomycin was used. Then, washing was performed once with 150 μl of DMEM, and the medium was changed to DMEM culture medium containing 100 μl of ECP, penicillin, and streptomycin. After cells were cultured for 72 hours, the number of living cells was counted using Cell Titer-GloTM Luminescent Cell Viability Assay (No. G7570; Promega).

[6] = system: mouse fibroblast cell line (BALB/c 3T3); assay: Proliferation of cell lines derived from normal tissue, 10% FBS, MTT; type: cell-based; conditions: ECP 0 to 10 μM, 48 hours, FIG. 1
Method: (§1) The effects of ECP on the proliferation of a mouse fibroblast cell line (BALB/c 3T3), aortic smooth muscle cell line (A10), mouse mammary epithelial cell line (HC-11) and human umbilical vessel endothelial cell line (HUVEC) were analyzed in the presence of 10% FBS. First, in DMEM culture medium containing 10% FBS in a 96-well culture plate, each cell line was inoculated at a concentration of 500 cells/well. Then, the cells were cultured for 24 hours in an incubator in which CO2 was maintained at 5%. Then, the respective concentrations of ECP and RNaseA (0 to 10 μM) were added, and the culture was continued for 48 hours in the same incubator. Then, 3-(4,5-dimethylthiazol-2-yl)-diphenyl-tetrazolium bromide (MTT) was added, and the proliferation rate of each cell line was obtained.

[7] = system: mouse mammary epithelial cell line (HC-11); assay: as above; type: cell-based; conditions: ECP 0 to 10 μM, 48 hours, FIG. 1
Method: as §1

[8] = system: aortic smooth muscle cell line (A10); assay: as above; type: cell-based; conditions: ECP 0 to 10 μM, 48 hours, FIG. 1
Method: as §1

[9] = system: human umbilical vessel endothelial cell line (HUVEC); assay: as above; type: cell-based; conditions: ECP 0 to 10 μM, 48 hours, FIG. 1
Method: as §1

Row | Molecule | cell proliferation in low-serum medium (phase-contrast observation) (BALB/c 3T3 cells [1]) | cell proliferation (number of living cells) (BALB/c 3T3 A31-K cells) | effect on cardiac hypertrophy in myocardial cell (immunofluorescence staining) [2] | ALP activity (specific activity, control = 100%) (MC3T3-E1 cells) | number of heartbeats of myocardial cell [3] | formation of cytoskeletal molecules (stress fibers) (BALB/c 3T3 cells [4]) | time-course cell proliferation (number of living cells) (BALB/c 3T3 cells [5]) | survival of nerve cells (number of living cells) (PC12 cells) | cell proliferation (proliferation rate, MTT) [6] | cell proliferation (proliferation rate, MTT) [7] | cell proliferation (proliferation rate, MTT) [8] | cell proliferation (proliferation rate, MTT) [9]
1 | bFGF: bFGF, added at 60 pM to low-serum culture | The cells were proliferated | – | – | – | – | – | – | – | – | – | – | –
2 | B1 | – | could not be observed | – | – | – | – | – | – | – | – | – | –
3 | B2 | – | significantly promoted the cell proliferation at any concentration | an effect of ECP on cardiac hypertrophy in a myocardial cell was confirmed | equal to or higher than that of BMP-4 | increased in a dose-dependent manner | increase in the formation of many cytoskeletal molecules (stress fibers) was confirmed | the proliferation of cells was significantly promoted | the survival of nerve cells was maintained | the cell proliferation was promoted | the proliferation was not promoted or the proliferation was inhibited | the proliferation was not promoted or the proliferation was inhibited | the proliferation was not promoted or the proliferation was inhibited
